Data from patent US20040254364A1.

How the values were obtained:
[1] = target: Manduca sexta brush border membrane vesicles (BBMV); assay: micropanning on 100 µg of BBMV; control sample, set to 1.0 by definition
[2] = target: Manduca sexta brush border membrane vesicles (BBMV); assay: 125I-labelled phage added to 10 µg of BBMV with 100-fold excess of unlabeled Cry1Ac
[3] = target: Manduca sexta brush border membrane vesicles (BBMV); assay: 125I-labelled phage added to 10 µg of BBMV, no competitor
[4] = target: Bovine serum albumin (bovine) (UniProt P02769); assay: micropanning in microtiter wells; control sample, set to 1.0 by definition
Bovine serum albumin (bovine), sequence (P02769 25-607 limits assumed): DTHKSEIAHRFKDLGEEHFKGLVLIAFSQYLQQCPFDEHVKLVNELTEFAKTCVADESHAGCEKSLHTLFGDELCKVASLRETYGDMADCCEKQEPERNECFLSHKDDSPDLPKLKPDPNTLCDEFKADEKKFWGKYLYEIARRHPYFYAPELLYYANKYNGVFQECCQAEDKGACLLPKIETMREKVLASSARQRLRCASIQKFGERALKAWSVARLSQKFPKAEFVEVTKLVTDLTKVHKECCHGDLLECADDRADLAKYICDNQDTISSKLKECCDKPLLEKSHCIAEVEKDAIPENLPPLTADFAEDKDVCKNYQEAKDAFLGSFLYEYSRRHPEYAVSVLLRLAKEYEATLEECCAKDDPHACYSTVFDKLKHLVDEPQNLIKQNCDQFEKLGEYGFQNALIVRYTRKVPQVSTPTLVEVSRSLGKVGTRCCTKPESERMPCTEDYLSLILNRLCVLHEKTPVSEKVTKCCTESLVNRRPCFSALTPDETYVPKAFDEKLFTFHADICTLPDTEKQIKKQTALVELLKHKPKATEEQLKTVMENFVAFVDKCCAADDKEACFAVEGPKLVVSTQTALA

[5] = target: Manduca sexta brush border membrane vesicles (BBMV); assay: 125I-labelled phage added to 10 µg of BBMV with 100-fold excess of unlabeled Cry1Ac, 105,252 cpm added
[6] = target: Manduca sexta brush border membrane vesicles (BBMV); assay: 125I-labelled phage added to 10 µg of BBMV, no competitor, 105,252 cpm added
[7] = target: Manduca sexta brush border membrane vesicles (BBMV); assay: micropanning on 100 µg of BBMV with an excess of free Cry1Ac as competitor, yield relative to BBMV without competitor
[8] = target: Manduca sexta brush border membrane vesicles (BBMV); assay: 125I-labelled phage on 10 µg of BBMV, competitor 100-fold excess of unlabeled Cry1Ac
[9] = target: Manduca sexta brush border membrane vesicles (BBMV); assay: 125I-labelled control phage added to 10 µg of BBMV with 100-fold excess of unlabeled Cry1Ac
[10] = target: Manduca sexta brush border membrane vesicles (BBMV); assay: 125I-labelled control phage added to 10 µg of BBMV with 100-fold excess of unlabeled Cry1Ac, 62,319 cpm added
[11] = target: Manduca sexta brush border membrane vesicles (BBMV); assay: 125I-labelled control phage added to 10 µg of BBMV, no competitor, 62,319 cpm added
[12] = target: Manduca sexta brush border membrane vesicles (BBMV); assay: 125I-labelled control phage added to 10 µg of BBMV, no competitor
[13] = target: Manduca sexta brush border membrane vesicles (BBMV); assay: 125I-labelled toxin added to 10 µg of BBMV, no competitor, 98,242 cpm added
[14] = target: Manduca sexta brush border membrane vesicles (BBMV); assay: 125I-labelled toxin added to 10 µg of BBMV with 100-fold excess of unlabeled Cry1Ac
[15] = target: Manduca sexta brush border membrane vesicles (BBMV); assay: 125I-labelled toxin added to 10 µg of BBMV with 100-fold excess of unlabeled Cry1Ac, 98,242 cpm added
[16] = target: Manduca sexta brush border membrane vesicles (BBMV); assay: 125I-labelled toxin on 10 µg of BBMV, competitor 100-fold excess of unlabeled Cry1Ac
[17] = target: Manduca sexta brush border membrane vesicles (BBMV); assay: 125I-labelled toxin added to 10 µg of BBMV, no competitor

Row | Substance | relative yield (relative to control sample) [1] | % cpm bound [2] | % cpm bound [3] | relative yield (relative to control sample) [4] | mean cpm bound (n = 2) [5] | mean cpm bound (n = 2) [6] | relative yield (relative to control sample) [7] | % competition [8] | % cpm bound [9] | mean cpm bound (n = 2) [10] | mean cpm bound (n = 2) [11] | % cpm bound [12] | mean cpm bound (n = 2) [13] | % cpm bound [14] | mean cpm bound (n = 2) [15] | % competition [16] | % cpm bound [17]
1 | 1Ac-fUSE5 phage (filamentous fd phage displaying the Cry1Ac-cpIII fusion protein) (from UniProt P05068 1-611; P03661 48-424) | 1 | 10.7% | 11.7% | 1 | 11200 cpm | 12300 cpm | 1.7 | 8.5% |  |  |  |  |  |  |  |  | 
2 | WT-fUSE5 phage (fUSE5 vector phage without insert, grown in JM109) (from UniProt P03661 19-424) | 1 |  |  | 1 |  |  | 0.24 |  | 7.6% | 4740 cpm | 3780 cpm | 6.1% |  |  |  |  | 
3 | purified, trypsin-activated HD-73 Cry1Ac toxin (65 kDa) from Bacillus thuringiensis subsp. kurstaki (from UniProt P05068 29-623) |  |  |  |  |  |  |  |  |  |  |  |  | 12700 cpm | 4.3% | 4260 cpm | 66.5% | 12.9%
